In assay [1] the target is T1, TAT-D2pep[K211-T225] peptide (UniProt P14416 211-225).
T1 construct: dopamine D2 receptor, residues K211-T225; also called D2 [K211-T225]
Briefly: SPR; TAT-D2pep amine-coupled to carboxymethylated dextran chip; mouse GST-Disc1-L100PNT at 25-400 nM, GST-DISC1NT at 100 nM-1.6 uM; 25 °C; TBS-T pH 7.4; 50 ul/min; association 180 s, dissociation 300 s; KD from association and dissociation rates. Conditions: both partners purified.

Assay [2] addresses T1, TAT-D2pep[K211-T225] peptide. In words: SPR; TAT-D2pep amine-coupled to carboxymethylated dextran chip (600 RU); human GST-DISC1NT or R264Q flowed at 0-4.0 uM; 25 °C; TBS-T (150 mM NaCl, 1 mM CaCl2, 1 mM MgCl2, 10 mM Tris pH 7.4, 0.005% P-20); 50 ul/min; equilibrium analysis. Conditions: both partners purified.

B1: GST-DISC1NT (mouse, wild type) (domain or fragment)
chain: MQGGGPRGAPIHSPSHGADSGHGLPPAVAPQRRRLTRRPGYMRSTAGSGIGFLSPAVGMPHPSSAGLTGQQSQHSQSKAGQCGLDPGSHCQASLVGKPFLKSSLVPAVASEGHLHPAQRSMRKRPVHFAVHSKNDSRQSERLTGSFKPGDSGFWQELLSSDSFKSLAPSLDAPWNKGSRGLKTVKPLASPALNGPADIASLPGFQDTFTSSFSFIQLSLGAAGERGEAEGCLPSREAEPLHQRPQEMAAEASSSDRPHGDPRHLWTFSLHAAPGLADLAQVTRSSSRQSECGTV
modifications: GST carrier omitted; limits not given, N-terminal head region taken from the UniProt feature 1-294
As to B1, the affinity in assay [1], expressed as Kd, was 760 ± 20 nM.

B2: GST-Disc1-L100PNT (mouse) (domain or fragment)
chain: MQGGGPRGAPIHSPSHGADSGHGLPPAVAPQRRRLTRRPGYMRSTAGSGIGFLSPAVGMPHPSSAGLTGQQSQHSQSKAGQCGLDPGSHCQASLVGKPFPKSSLVPAVASEGHLHPAQRSMRKRPVHFAVHSKNDSRQSERLTGSFKPGDSGFWQELLSSDSFKSLAPSLDAPWNKGSRGLKTVKPLASPALNGPADIASLPGFQDTFTSSFSFIQLSLGAAGERGEAEGCLPSREAEPLHQRPQEMAAEASSSDRPHGDPRHLWTFSLHAAPGLADLAQVTRSSSRQSECGTV
modifications: GST carrier omitted; limits not given, N-terminal head region taken from the UniProt feature 1-294
For the molecule B2, the Kd in assay [1] is 100 ± 2 nM.

B3: GST-DISC1NT (human, wild type) (domain or fragment)
chain: MPGGGPQGAPAAAGGGGVSHRAGSRDCLPPAACFRRRRLARRPGYMRSSTGPGIGFLSPAVGTLFRFPGGVSGEESHHSESRARQCGLDSRGLLVRSPVSKSAAAPTVTSVRGTSAHFGIQLRGGTRLPDRLSWPCGPGSAGWQQEFAAMDSSETLDASWEAACSDGARRVRAAGSLPSAELSSNSCSPGCGPEVPPTPPGSHSAFTSSFSFIRLSLGSAGERGEAEGCPPSREAESHCQSPQEMGAKAASLDGPHEDPRCLSRPFSLLATRVSADLAQAARNSSRPERDMH
modifications: GST carrier omitted; limits not given, N-terminal head region taken from the UniProt feature 1-292
In turn, B3 yielded a Kd in assay [2] of 653 ± 6 nM.

B4: GST-DISC1-NT R264Q (human) (domain or fragment)
chain: MPGGGPQGAPAAAGGGGVSHRAGSRDCLPPAACFRRRRLARRPGYMRSSTGPGIGFLSPAVGTLFRFPGGVSGEESHHSESRARQCGLDSRGLLVRSPVSKSAAAPTVTSVRGTSAHFGIQLRGGTRLPDRLSWPCGPGSAGWQQEFAAMDSSETLDASWEAACSDGARRVRAAGSLPSAELSSNSCSPGCGPEVPPTPPGSHSAFTSSFSFIRLSLGSAGERGEAEGCPPSREAESHCQSPQEMGAKAASLDGPHEDPRCLSQPFSLLATRVSADLAQAARNSSRPERDMH
modifications: GST carrier omitted; limits not given, N-terminal head region taken from the UniProt feature 1-292
On to B4, for which, in assay [2], the Kd came to 243 ± 3 nM.

Source of the values: publication PMC7271519, “The DISC1 R264Q variant increases affinity for the dopamine D2 receptor and increases GSK3 activity” (Molecular Brain, 2020).
